Tested on: NCI-H292 cells
Experiment: AB-PAS staining of mucus glycoprotein in NCI-H292 cells
Assay type: cell-based, human
Details: FIG. 1 and 2
Description: NCI-H292 cells (human pulmonary mucoepidermoid tumor cell strain, purchased from ATCC) were suspended in 10% FCS (Fetal Calf Serum)-containing RPMI-1640 (produced by Gibco Corp.), sowed on a Lab-Tek 8 well chamber slide (produced by Nunc Corp.) in a density of 6.0×10^4 cells/cm^2, cultured for 72 hours, subjected to the replacement of the culture solution by RPMI-1640 containing 0.1% of BSA, and further cultured for 24 hours.
On the day of the treatment, the culture solution of each well was replaced by RPMI-1640 (containing 0.1% BSA) containing EGF (5 ng/mL, produced by Becton Dickinson Corp.), HB-EGF (5 ng/mL, produced by R & D Corp.), TGF-α (5 ng/mL, produced by Peprotech Corp.), or PBS to start the treatment. Then, the cells were incubated at 37° C. for 24 hours.
After the prescribed 24 hours treatment, the culture supernatant was removed. The residue was once washed with PBS, mixed with 4% paraformaldehyde/PBS, and then allowed to stand at room temperature for one hour to immobilize the cells. The immobilized cells were twice washed with Milli Q water and then stained with AB-PAS. The staining was carried out according to a book (“All of new dyeing methods” p136-150 (Iyaku Shuppansha)). […]

B1: EGF: Epidermal Growth Factor, EGFR ligand, produced by Becton Dickinson Corp. (protein)
chain: PQHWSCPEGTLAGNGNSTCVGPAPFLIFSHGNSIFRIDTEGTNYEQLVVDAGVSVIMDFHYNEKRIYWVDLERQLLQRVFLNGSRQERVCNIEKNVSGMAINWINEEVIWSNQQEGIITVTDMKGNNSHILLSALKYPANVAVDPVERFIFWSSEVAGSLYRADLDGVGVKALLETSEKITAVSLDVLDKRLFWIQYNREGSNSLICSCDYDGGSVHISKHPTQHNLFAMSLFGDRIFYSTWKMKTIWIANKHTGKDMVRINLHSSFVPLGELKVVHPLAQPKAEDDTWEPEQKLCKLRKGNCSSTVCGQDLQSHLCMCAEGYALSRDRKYCEDVNECAFWNHGCTLGCKNTPGSYYCTCPVGFVLLPDGKRCHQLVSCPRNVSECSHDCVLTSEGPLCFCPEGSVLERDGKTCSGCSSPDNGGCSQLCVPLSPVSWECDCFPGYDLQLDEKSCAASGPQPFLLFANSQDIRHMHFDGTDYGTLLSQQMGMVYALDHDPVENKIYFAHTALKWIERANMDGSQRERLIEEGVDVPEGLAVDWIGRRFYWTDRGKSLIGRSDLNGKRSKIITKENISQPRGIAVHPMAKRLFWTDTGINPRIESSSLQGLGRLVIASSDLIWPSGITIDFLTDKLYWCDAKQSVIEMANLDGSKRRRLTQNDVGHPFAVAVFEDYVWFSDWAMPSVMRVNKRTGKDRVRLQGSMLKPSSLVVVHPLAKPGADPCLYQNGGCEHICKKRLGTAWCSCREGFMKASDGKTCLALDGHQLLAGGEVDLKNQVTPLDILSKTRVSEDNITESQHMLVAEIMVSDQDDCAPVGCSMYARCISEGEDATCQCLKGFAGDGKLCSDIDECEMGVPVCPPASSKCINTEGGYVCRCSEGYQGDGIHCLDIDECQLGEHSCGENASCTNTEGGYTCMCAGRLSEPGLICPDSTPPPHLREDDHHYSVRNSDSECPLSHDGYCLHDGVCMYIEALDKYACNCVVGYIGERCQYRDLKWWELRHAGHGQQQKVIVVAVCVVVLVMLLLLSLWGAHYYRTQKLLSKNPKNPYEESSRDVRSRRPADTEDGMSSCPQPWFVVIKEHQDLKNGGQPVAGEDGQAADGSMQPTSWRQEPQLCGMGTEQGCWIPVSSDKGSCPQVMERSFHMPSYGTQTLEGGVEKPHSLLSANPLWQQRALDPPHQMELTQ
  production of the mucus glycoprotein: promoted

Reference: US20040038369A1, “Airway-specific trypsin-like enzymes and method of using the same” (priority 2000, published 2004)
